{"source": "patent US7303752B2", "about": "“Hookworm vaccine” (The George Washington University, priority 2001, dated 2007)", "type_in_all_cases": "in vivo, dog", "key": {"[1]": {"test_system": "antigen-specific IgG1 and IgG2", "assay": "Antibody titers in HV-12 (Ac-CYS, Ac-MTP-2, Ac-GST in AS03, irradiated L3)", "details": "for Antibody titers, IgG1, GEOMEAN / Antibody titers, IgG2, GEOMEAN: geometric mean of group; for Antibody titers, IgG1 / Antibody titers, IgG2: individual dogs, after four immunizations, L3 Extract = group E dogs vaccinated with irradiated L3", "method": "(§1) Brief Outline of Study Sections: Purpose bred beagles were randomized into five groups. […] groups were given one of three candidate vaccines: Ac-Cystatin, Ac-MTP-2 and Ac-GST in combination with the adjuvant ASO3. One group will serve as the negative control receiving the adjuvant only. Another group will be a positive control immunized with irradiated infective larvae. Each animal's specific antibody response was evaluated by direct ELISA using serum taken prior to the infective challenge. Cellular immune responses were assessed by peripheral (blood cells) lymphoproliferative responses to specific recombinant antigens and/or crude extract of infective larvae (L3) or adult worms. Local cellular immune responses were performed post mortem with lymphocytes extracted from mesenteric lymph nodes and, if considered, spleen. After immunization, animals were challenged with a known number dose of infective third stage larvae of A. caninum. Quantitative ova counts, used to evaluate worm burden, were determined from fecal samples collected three times per week. […] Tissues from different organs were examined macro and microscopically to assess any consequence of the vaccine, parasite or immune related lesions.\n(§2) Administration of Test and Control Articles: The vaccines and adjuvant were administered intramuscularly (IM) […] beginning when the dogs are 62+/−4 days old. The vaccines are boosted at 21+/−3-day intervals. Four doses of the vaccines were given 21 days apart (days 0, 21, 42, and […]). The dogs were challenged percutaneously with 500 A. caninum L3, 14 days after the final vaccination.\nSerum Samples for Quantitative ELISA Antibody Titers: Animals treated with vaccines containing foreign proteins develop an immune response resulting in an increased level of high affinity serum antibodies that are directed against the antigen. […] White blood cells were collected for immunological measurements nine (9) days after the last boost and at the time of euthanasia to address the cellular immune response status and cytokine production upon in vitro restimulation of lymphocytes."}, "[2]": {"test_system": "A. caninum", "assay": "Canine vaccine trial HV-12, percutaneous challenge with 500 A. caninum L3", "details": "for Adult Hookworm Worm Counts, Intestine, Male, Average / Adult Hookworm Worm Counts, Intestine, Female, Average / Adult Hookworm Worm Counts, Total, Average: group average; for Adult Hookworm Worm Counts, Intestine, Male, Average: AS03 control 64; for Adult Hookworm Worm Counts, Intestine, Female, Average: AS03 control 71; for Adult Hookworm Worm Counts, Total, Average: AS03 control 137", "method": "as §1, §2\nChallenge Infection: Ancylostoma caninum larvae were cultured from the eggs collected in the feces of infected dogs. All hookworms in the infective challenge were approximately equal age (17±7 days). The species identity of the infective larva dose were validated using PCR DNA amplification and specific oligonucleotide primers. Overnight-collected feces of A. caninum-infected dogs were cultured, extracted and counted. All dogs were infected by the footpad method with the same dose (500+/−5%, of 3rd stage larvae of A. caninum. Larval challenge occurs on one of three consecutive days (at age 120+/−9 days) in 5 series. To minimize the difference in the infective L3 doses, each series included one dog from each (A-E group). […]\nAdult Worm Count. Adult worms retained in the small and large intestines were collected. The small and large bowel will be collected and the small intestine will be suspended (the large bowel will not be suspended) in a container and incubated for at least two hours at 35° C. saline to collect the adult parasites. The adult worms were separated from the intestinal contents, counted, and preserved in formalin for subsequent count and analysis of sex, length and weight. Results and Analysis"}, "[3]": {"test_system": "A. caninum", "assay": "Canine vaccine trial with Ac-MTP-1, subcutaneous challenge with 500 A. caninum L3", "from_the_text": "To test whether Ac-MTP-1 could be an effective vaccine, two groups of five (5) purpose-bred male beagles 8+1 wk of age were vaccinated either with the recombinant (expressed and isolated from Escherichia coli) fusion protein formulated with AS02A adjuvant, or adjuvant alone. The composition of AS02A, which has been successfully used in several malaria vaccine clinical studies, is described elsewhere (Lalvani et al, 1999; Bojang et al, 2001; Kester et al, 2001). Details of the animal husbandry and housing conditions were reported previously (Hotez et al, 2002a). The recombinant fusion protein containing a polyhistidine tag was purified from washed E. coli inclusion bodies that were solubilized in 6 M guanidine-HCl in 10 mM Tris HCl, pH 8.0. The solubilized inclusion bodies were processed in 5-10 ml batches by gel filtration chromatography (Sephacryl S-300, 26/60 gel filtration column [Amersham Pharmacia] pre-equilibrated in a buffer containing 0.1 NaH2PO4, 10 mM Tris-HCl and 6 M guanidine) at room temperature (flow rate of 2 ml/minute). Selected fractions containing Ac-MTP-1 (as determined by analysis on sodium dodecyl sulfate-polyacrylamide gel electrophoresis [SDS-PAGE]) were pooled, refolded according to the method of Singh et al (2001), and then loaded onto a 5 ml Hi-Trap IMAC column (Amersham Pharmacia) charged with ZnCl2 and equilibrated in 50 mM sodium phosphate pH 7.2, 1 M urea, and 0.5 M NaCl. The column was subsequently washed with 15 column volumes of equilibration buffer, and the bound protein was eluted with 50 mM sodium phosphate pH7.2, 1 M urea, 0.5 M NaCl, and 50 mM ethylenediamine tetraacetic acid (EDTA). Eluted samples containing protein were pooled and dialyzed against 10 mM Tris-HCl pH 8.0, 5% glycerol, 1 mM dithiothreitol, and 2 mM EDTA.\nThe recombinant Ac-MTP-1 fusion protein was mixed with SBAS2 adjuvant and administered to each of five dogs in four intramuscular injections on days 1, 4, 43, and 50. […] Antigen-specific canine IgG2 and IgE antibodies were measured by indirect enzyme-linked immunosorbent assay (ELISA) as described previously (Hotez et al, 2002a). […] Quantitative hookworm egg counts (McMaster technique) on each dog were obtained 3 days per wk beginning on day 12 post-infection (PI). Five wk post-infection, the dogs were killed by intravenous barbituate injection, and the adult hookworms were recovered and counted from the small and large intestines at necropsy (Hotez et al., 2002c). The statistical significance of differences between adult hookworm burdens was determined using the Anova test, as were differences in hematological parameters and in quantitative hookworm egg counts. Comparisons of hookworm burden and egg counts with antibody titers were measured using Spearman rank order (nonparametric) correlations. […]"}, "[4]": {"test_system": "A. caninum", "assay": "Canine vaccine trial with Ac-TTR and SBAS2, L3 challenge: worm burden, blood loss, worm size", "method": "E. coli derived antigens Ac-MTP-1 and Ac-TTR were tested in vaccine trials in dogs. Antigens were administered with adjuvant SBAS2. […] Subsequently the dogs were challenged by subcutaneous injection of L3 hookworm larvae.\nAnimals were also tested to ascertain whether vaccination with hookworm antigens protected against blood loss. […] Using the Mann-Whitney test, the differences in both hemoglobin (38B) concentration (P=0.036) and hematocrit (38A) concentration (P=0.009) between the TTR and adjuvant control groups were statistically significant.\nFurther, the differences in hemoglobin concentration translated to a statistically significant reduction in worm size. Data was collected using an imaging system based on scans of the worms recovered from a host. Worms were photographed with a CoolSnapPro digital camera (Media Cybernetics), and the images measured in ImagePro Software using a macro to determine worm length (in mm) compared between treatments. As shown in FIG. 39 there was a statistically significant reduction in worm size (between 1 and 2 mm) among the TTR vaccinated group relative to the adjuvant control group."}}, "note": "Values joined by “and” are separate entries in the source; they are usually repeats but may differ in a detail not shown here. Equal entries are not always repeated.", "data": [{"molecule": "Ac-CYS: A. caninum cystatin antigen, SEQ ID NO: 100; Pichia pastoris expressed (protein, listed as Ancylostoma caninum) MPYLAFIVALLACTVMSGHGQMTGGLTKQDPNDPEHMARAWKAAKGINEDASNAGPYHMIPIKIVKAESQVVAGVRYIFEVLFGESTCKKGHMAATELSASNCELKEGGNRALYKVELWEKPWENFEQFNVEKIRNVAAGEQI", "values": [{"measurement": "Antibody titers, IgG1, GEOMEAN", "setting": "[1]", "result": "121,500"}, {"measurement": "Antibody titers, IgG2, GEOMEAN", "setting": "[1]", "result": "364,500"}, {"measurement": "Antibody titers, IgG1", "setting": "[1]", "result": "121,500 (3×) and 40,500 and 364,500"}, {"measurement": "Antibody titers, IgG2", "setting": "[1]", "result": "364,500 (3×) and 121,500 and 1,093,500"}, {"measurement": "Adult Hookworm Worm Counts, Intestine, Male, Average", "setting": "[2]", "result": 49}, {"measurement": "Adult Hookworm Worm Counts, Intestine, Female, Average", "setting": "[2]", "result": 56}, {"measurement": "Adult Hookworm Worm Counts, Total, Average", "setting": "[2]", "result": 107}, {"measurement": "Adult Hookworm Worm Counts, Colon, Female", "setting": "[2]; individual dogs", "result": "0 (3×) and 5 and 2"}, {"measurement": "Adult Hookworm Worm Counts, Colon, Male", "setting": "[2]; individual dogs", "result": "0 (3×) and 1 and 3"}, {"measurement": "Adult Hookworm Worm Counts, Intestine, Female", "setting": "[2]; individual dogs", "result": "56 and 85 and 29 and 67 and 41"}, {"measurement": "Adult Hookworm Worm Counts, Intestine, Male", "setting": "[2]; individual dogs", "result": "44 and 81 and 38 and 48 and 36"}, {"measurement": "Adult Hookworm Worm Counts, Intestine, Unk. Sex", "setting": "[2]; individual dogs", "result": 1}, {"measurement": "Adult Hookworm Worm Counts, Total", "setting": "[2]; individual dogs", "result": "100 and 167 and 67 and 124 and 79"}]}, {"molecule": "Ac-MTP-2: A. caninum astacin protease antigen, SEQ ID NO: 42; Pichia pastoris expressed (protein, listed as Ancylostoma caninum) MKYFVLCFCAFFVVNADEEDDLPRNPLWDAYKDDNGKYVIPYVINGSYGEEKKVLFEMMDEIDKNTCVRFIPRSTEQDYIEIVNRLGEGTGAVVGKPGGKSIVLLESSKILNDPTPAPVMQTLMKIIGLPPEHIRPERKDHIKIHWENIEKGYEAFFALSSVKPDPYGIPYDYYSIMHYKKDAFAKPGTITMETLDKRYQDIIGNQEKPSKLDYKKICTKYKCDICMGEKMKY", "values": [{"measurement": "Antibody titers, IgG1, GEOMEAN", "setting": "[1]", "result": "62,850"}, {"measurement": "Antibody titers, IgG2, GEOMEAN", "setting": "[1]", "result": "121,500"}, {"measurement": "Antibody titers, IgG1", "setting": "[1]", "result": "121,500 (2×) and 40,500 (3×)"}, {"measurement": "Antibody titers, IgG2", "setting": "[1]", "result": "364,500 and 121,500 (3×) and 40,500"}, {"measurement": "Adult Hookworm Worm Counts, Intestine, Male, Average", "setting": "[2]", "result": 61}, {"measurement": "Adult Hookworm Worm Counts, Intestine, Female, Average", "setting": "[2]", "result": 60}, {"measurement": "Adult Hookworm Worm Counts, Total, Average", "setting": "[2]", "result": 132}, {"measurement": "Adult Hookworm Worm Counts, Colon, Female", "setting": "[2]; individual dogs", "result": "10 and 3 and 2 and 15 and 0"}, {"measurement": "Adult Hookworm Worm Counts, Colon, Male", "setting": "[2]; individual dogs", "result": "11 and 2 and 1 (2×) and 9"}, {"measurement": "Adult Hookworm Worm Counts, Intestine, Female", "setting": "[2]; individual dogs", "result": "71 and 51 and 41 and 65 and 73"}, {"measurement": "Adult Hookworm Worm Counts, Intestine, Male", "setting": "[2]; individual dogs", "result": "64 (2×) and 49 and 41 and 87"}, {"measurement": "Adult Hookworm Worm Counts, Total", "setting": "[2]; individual dogs", "result": "156 and 105 and 85 and 153 and 161"}]}, {"molecule": "Ac-MTP-1: A. caninum L3 astacin zinc metalloprotease, SEQ ID NO: 16 (also listed as SEQ ID NO: 40); E. coli fusion protein (protein, listed as Ancylostoma caninum) MRVLLLLLLLSICASAGFLDTKFGQKIKKTLDKIKAVLNGTALIAIREKFIRLREKIKAKLTLSPARKAILDEVMKHIKMIKKDKIQEKGDSIDEINEKSAIGQLLYQGDIVLTEKQAQQITEDIENDKGDREKRQAFRDRNYPRTLWSKGVYFHFHRNATPEVRSVFVKGAKLWMKDTCIDFFESNSAPDRIRVFKENGCWSYVGRLGGEQDLSLGEGCQSVGTAAHEIGHAIGFYHTHARHDRDNFITFNAQNVKPDWLDQFTLQTPATNENYGITYDYGSIMHYGANSASQNGRPTMVPHDPKYVETLGINKHYDCTKNCDPATSAQCKMGGFPHPRDCTRCICPSGYGGKLCDQKPAGCGSIYQATNQYQTLHDEIGDKRAGQRPREDMDFCYYWITAPKGSKIEIKIAGLSQGAAVEGCQYWGVEIKTHADQRLTGYRFCAPEDVGVRLVSNFNIVPIITYNIFYATYVDIQYRIVGDNVGGPMPQPQPNSNCVDNEQCATLVRTKNFCQSRFFTSSVKRGLCPKSSGFCR", "values": [{"measurement": "reduction in worm burden, dog with highest versus dog with lowest antibody titer", "setting": "[3]; dog, in vivo", "result": 50, "unit": "%"}, {"measurement": "hookworms recovered from the dog with the highest antibody titer", "setting": "[3]; single vaccinated dog", "result": 98, "unit": "hookworms"}, {"measurement": "hookworms recovered from the dog with the lowest antibody titer", "setting": "[3]; single vaccinated dog", "result": 189, "unit": "hookworms"}, {"measurement": "number of adult hookworms recovered (mean+standard deviation)", "setting": "[3]; vaccinated dogs, 5 wk after 500 L3 s.c., control dogs 143+30, not significant", "result": "154+34 hookworms"}]}, {"molecule": "Ac-TTR-1: A. caninum transthyretin antigen, SEQ ID NO: 30; E. coli derived, given with SBAS2 (protein, listed as Ancylostoma caninum) MIQLFLLALVPMCISVREQSIAVKGRLLCGDQPAANVRVKLWEEDTGPDPDDLLDAGYTNSNGEFQLQGGTIETTPIDPVLKIYHDCNDVTGFLSVPKPGSRKVRFSLPDKYISDGMVPKKVMDIGVINLEVEFEKEGREFIVD", "values": [{"measurement": "reduced hookworm burden", "setting": "[4]; one dog with high IgE and IgG1 antibody to TTR", "result": 6, "unit": "%"}, {"measurement": "protection against blood loss (hemoglobin, hematocrit)", "setting": "[4]; versus adjuvant control, hemoglobin P=0.036, hematocrit P=0.009", "result": "significant protection against blood loss"}]}]}
